This note sets out measurements from patent US20190351025A1 (HUDSON INSTITUTE OF MEDICAL RESEARCH, published 2019).

For test [1], the target named is mIFNAR2-ECD C94S (extracellular domain of mouse IFNAR2, His-tagged) (mouse) (UniProt O35664). Description: SPR, ProteOn XPR36, His-tagged receptor on HTG chip, Langmuir model, mean of 10 experiments.
Test [2] addresses T1, mIFNAR1-ECD (extracellular domain of mouse IFNAR1, His-tagged) (mouse, UniProt P33896 27-429).
T1 construct: extracellular domain; The tag is placed at the C-terminus here only for lack of information; not shown: His-tag
T1 sequence (looked up): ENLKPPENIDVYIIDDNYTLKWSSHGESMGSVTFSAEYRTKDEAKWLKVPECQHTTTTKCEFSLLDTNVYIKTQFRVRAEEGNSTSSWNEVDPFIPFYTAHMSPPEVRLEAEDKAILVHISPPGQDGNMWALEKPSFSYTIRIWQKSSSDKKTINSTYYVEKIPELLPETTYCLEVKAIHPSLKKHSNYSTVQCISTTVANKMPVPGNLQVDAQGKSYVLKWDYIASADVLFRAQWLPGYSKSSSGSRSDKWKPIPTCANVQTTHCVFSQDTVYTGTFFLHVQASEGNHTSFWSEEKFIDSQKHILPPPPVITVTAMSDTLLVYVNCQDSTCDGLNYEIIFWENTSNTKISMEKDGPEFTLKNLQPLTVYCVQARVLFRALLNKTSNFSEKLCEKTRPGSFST
Description: SPR, ProteOn XPR36, His-tagged receptor on HTG chip, Langmuir model, n=10 experiments. As for the experimental part:
(§1) For Surface Plasmon Resonance (SPR), mIFNAR1-ECD and rmIFN were expressed and purified from mammalian cell and insect cell culture, respectively, as previously described (Stifter et al. (2014) Protein Expr Purif 94:7-14); mIFNAR2-ECDC94S and rmIFN 1 were expressed and purified from mammalian cell culture also as previously described (de Weerd et al. (2013) supra). huIFNε is produced in a similar manner All SPR experiments were carried out on a ProteOn XPR36 (Bio-Rad Labs) using a HTG chip for His-tagged proteins and TBS as the running buffer. mIFNAR1-ECD and mIFNAR2-ECDC94S were immobilized to the nickel activated chip via the His-tags after dilution to […] in TBS. All IFNs (rmIFN 1, rmIFN and rmIFN) were diluted in TBS to various concentrations ranging from 40 nM to […]. All data were referenced according to the manufacturer's instructions (Bio-Rad) and analyzed using the Langmuir binding model. Data were considered for inclusion in the analysis only if the Chit value (the measure of error between measured and fitted values) was less than 10% of the Rₘₐₓ as per the manufacturer's instructions (Bio-Rad). Kₐ (1/Ms), Kd (1/s) and KD (nM) were calculated by the ProteOn Manager software and are represented as mean (+SD) from at least triplicate experiments. Significance was determined using one-way ANOVA with Dunnett's multiple comparisons testing. […]

In test [3] the target is T1, mIFNAR1-ECD (extracellular domain of …). The experiment in a line: SPR, ProteOn XPR36, His-tagged receptor on HTG chip. The procedure: as §1
Background: SPR reads the build-up and loss of mass on a sensor chip optically.

Test [4] addresses mIFNAR2-ECD C94S (extracellular domain of mouse IFNAR2, His-tagged) (mouse) (UniProt O35664). The description is as above.
The target in test [5] is T1, mIFNAR1-ECD (extracellular domain of …). The experiment in a line: SPR, ProteOn XPR36, His-tagged receptor on HTG chip, Langmuir model, n=9 experiments. As for the experimental part:
as §1

Test [6] addresses T2, huIFNAR2 (human, UniProt P48551 27-243, limits assumed).
T2 sequence (looked up): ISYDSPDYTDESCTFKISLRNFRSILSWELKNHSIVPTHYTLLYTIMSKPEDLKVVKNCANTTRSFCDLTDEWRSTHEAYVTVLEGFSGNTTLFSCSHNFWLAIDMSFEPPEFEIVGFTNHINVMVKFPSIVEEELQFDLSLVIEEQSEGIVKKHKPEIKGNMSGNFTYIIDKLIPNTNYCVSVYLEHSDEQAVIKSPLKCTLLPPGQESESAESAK
The experiment in a line: microscale thermophoresis (MST), E. coli expressed huIFNε.

Test [7] has as its target T2, huIFNAR2. Description: microscale thermophoresis (MST).

mIFNAR2-ECD C94S (extracellular domain of mouse IFNAR2, His-tagged) (mouse), sequence (O35664 22-242, stated change not applied): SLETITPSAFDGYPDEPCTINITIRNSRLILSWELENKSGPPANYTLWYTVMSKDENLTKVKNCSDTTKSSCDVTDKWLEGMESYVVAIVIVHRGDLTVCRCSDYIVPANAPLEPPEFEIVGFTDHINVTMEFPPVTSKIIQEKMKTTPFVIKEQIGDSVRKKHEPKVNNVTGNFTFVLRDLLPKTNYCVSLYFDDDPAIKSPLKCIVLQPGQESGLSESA

Broadly, the Kd is the constant that tells how readily two partners part at equilibrium. High values mean a looser complex, low ones a tighter complex. “recombinant murine interferon alpha 1 (rmIFNα1) (from UniProt P01572 24-189) (ligand)” gave a Kd in test [1] of 1.68 nM.

B1: recombinant murine interferon beta (rmIFNβ) (ligand, UniProt P01575 22-182, looked up)
chain: INYKQLQLQERTNIRKCQELLEQLNGKINLTYRADFKIPMEMTEKMQKSYTAFAIQEMLQNVFLVFRNNFSSTGWNETIVVRLLDELHQQTVFLKTVLEEKQEERLTWEMSSTALHLKSYYWRVQRYLKLMKYNSYAWMVVRAEIFRNFLIIRRLTRNFQN
notes: Printed as 'rmIFN' with the Greek letter lost
Take B1: the affinity in test [2], expressed as Kd, was 2.45 nM.

B2: recombinant murine interferon epsilon (rmIFNε) (ligand)
chain: LEPKRIPFQLWMNRESLQLLKPLPSSSVQQCLAHRKNFLLPQQPVSPHQYQEGQVLAVVHEILQQIFTLLQTHGTMGIWEENHIEKVLAALHRQLEYVESLGGLNAAQKSGGSSAQNLRLQIKAYFRRIHDYLENQRYSSCAWIIVQTEIHRCMFFVFRFTTWLSRQDPDP
notes: also called muIFNε; MuIFNε
As for B2, the “fold lower affinity than the rmIFNβ-IFNAR1-ECD interaction” value in test [3] was roughly 200 fold. This molecule also yielded a fold lower affinity than rmIFNα1 in test [4] greater than 1000 fold. The molecule further had a Kd in test [5] of 556 nM.

B3: human interferon epsilon (huIFNε), E. coli expressed and refolded (ligand)
chain: LDLKLIIFQQRQVNQESLKLLNKLQTLSIQQCLPHRKNFLLPQKSLSPQQYQKGHTLAILHEMLQQIFSLFRANISLDGWEENHTEKFLIQLHQQLEYLEALMGLEAEKLSGTLGSDNLRLQVKMYFRRIHDYLENQDYSTCAWAIVQVEISRCLFFVFSLTEKLSKQGRPLNDMKQELTTEFRSPRSA
notes: also called hIFN; rhIFN
In turn, B3 yielded a Kd in the test with huIFNAR2 [6] of 8190 nM. This counts as single-digit micromolar.

B4: huIFNβ (ligand, human, UniProt P01574 22-187, looked up)
chain: MSYNLLGFLQRSSNFQCQKLLWQLNGRLEYCLKDRMNFDIPEEIKQLQQFQKEDAALTIYEMLQNIFAIFRQDSSSTGWNETIVENLLANVYHQINHLKTVLEEKLEKEDFTRGKLMSSLHLKRYYGRILHYLKAKEYSHCAWTIVRVEILRNFYFINRLTGYLRN
notes: Comparator in the MST measurement; The source of the protein is not clearly stated; also called rhuIFNβ
Regarding B4, binding in the test with huIFNAR2 [7] was characterised by a dissociation constant (Kd) of 0.25 nM.
